From article PMC8685691, “A serum-stable RNA aptamer specific for SARS-CoV-2 neutralizes viral entry” come the findings set out here.

What is called Kd is the free concentration of one partner at which half of the binding sites on the other are occupied at equilibrium, for simple one-to-one binding. A high value points to a looser complex. By IC50 is commonly meant the midpoint of a concentration-inhibition curve. High values mean a need for much substance, low ones inhibition by little substance.

In series [1] the target is T1, SARS-CoV-2 spike RBD, WT, His-tagged (SARS-CoV-2 (WT), UniProt P0DTC2 319-532). Put plainly: FIDA.
Series [2] concerns the target T1, SARS-CoV-2 spike RBD, WT, His-tagged. Put plainly: BLI. Background: BLI is a label-free optical method that tracks binding on a fibre tip over time.
For series [3] the target is unchanged. Put plainly: BLI competition.
Series [4] deals with SARS-CoV-2 spike RBD, C-tagged (SARS-CoV-2 (WT), UniProt P0DTC2 319-532). The experiment in a line: BLI competition.

B1: RBD-PB6 (structured_RNA)
RNA: GGGGCCACCAACGACAUUUGUAAUUCCUGGACCGAUACUUCCGUCAGGACAGAGGUUGAUAUAAAUAGUGCCCAUGGAUCC
modifications: 2'-fluoro pyrimidines
Regarding B1, the results for the Kd in series [1] and in series [2] were 129 nM and roughly 18 nM, respectively. For the same molecule, the IC50 in series [3] is roughly 250 nM.
As for GGCGACAUUUGUAAUUCCUGGAUCAGGACAGAGGUUGCCA (structured_RNA, 2'-fluoro pyrimidines) [RBD-PB6-Td], the binding result in series [4] was “no binding”.
On the same count and under the same terms, under GGUUUGUAAUUCCUGGACCGAUACUUCCGUCAGGACAGACCA (structured_RNA, 2'-fluoro pyrimidines) [RBD-PB6-Tb] stands “no binding”.

B2: RBD-PB6-Ta (structured_RNA)
RNA: GGCGACAUUUGUAAUUCCUGGACCGAUACUUCCGUCAGGACAGAGGUUGCCA
modifications: 2'-fluoro pyrimidines
B2 had an IC50 in series [3] of 200 nM.
For the molecule GGUCCUGGACCGAUACUUCCGUCAGGACCA (structured_RNA, 2'-fluoro pyrimidines) [RBD-PB6-Tc], in series [4], the binding result is reported as “no binding”.

B3: RBD-PB6-Tinv (structured_RNA)
RNA: GGCGACAUUUGUAAUAGGACGACCGAUACUUCCGUGUCCUCAGAGGUUGCCA
modifications: 2'-fluoro pyrimidines
With B3, the binding result in series [4] was “no binding”.
